Among the data in publication PMC7515702 are Kd values, retold here.

Some targets named below: PARP1 H862D H862D (UniProt P09874); PARP1 H862A H862A (UniProt P09874); PARP1 WT (UniProt P09874); PARP1 E988K E988K (UniProt P09874).
Assay in all cases: fluorescence polarization
Common to all, as to conditions: no NAD+, 250 mM NaCl; Kd: 5 nM probe, 12 mM HEPES pH 8.0, 250 mM NaCl, 4% glycerol, 5.7 mM beta-mercaptoethanol, 0.05 mg/ml BSA, 30 min RT. Competition: 40 nM PARP1, 20 nM probe …

PARP1 WT, sequence (P09874 whole entry): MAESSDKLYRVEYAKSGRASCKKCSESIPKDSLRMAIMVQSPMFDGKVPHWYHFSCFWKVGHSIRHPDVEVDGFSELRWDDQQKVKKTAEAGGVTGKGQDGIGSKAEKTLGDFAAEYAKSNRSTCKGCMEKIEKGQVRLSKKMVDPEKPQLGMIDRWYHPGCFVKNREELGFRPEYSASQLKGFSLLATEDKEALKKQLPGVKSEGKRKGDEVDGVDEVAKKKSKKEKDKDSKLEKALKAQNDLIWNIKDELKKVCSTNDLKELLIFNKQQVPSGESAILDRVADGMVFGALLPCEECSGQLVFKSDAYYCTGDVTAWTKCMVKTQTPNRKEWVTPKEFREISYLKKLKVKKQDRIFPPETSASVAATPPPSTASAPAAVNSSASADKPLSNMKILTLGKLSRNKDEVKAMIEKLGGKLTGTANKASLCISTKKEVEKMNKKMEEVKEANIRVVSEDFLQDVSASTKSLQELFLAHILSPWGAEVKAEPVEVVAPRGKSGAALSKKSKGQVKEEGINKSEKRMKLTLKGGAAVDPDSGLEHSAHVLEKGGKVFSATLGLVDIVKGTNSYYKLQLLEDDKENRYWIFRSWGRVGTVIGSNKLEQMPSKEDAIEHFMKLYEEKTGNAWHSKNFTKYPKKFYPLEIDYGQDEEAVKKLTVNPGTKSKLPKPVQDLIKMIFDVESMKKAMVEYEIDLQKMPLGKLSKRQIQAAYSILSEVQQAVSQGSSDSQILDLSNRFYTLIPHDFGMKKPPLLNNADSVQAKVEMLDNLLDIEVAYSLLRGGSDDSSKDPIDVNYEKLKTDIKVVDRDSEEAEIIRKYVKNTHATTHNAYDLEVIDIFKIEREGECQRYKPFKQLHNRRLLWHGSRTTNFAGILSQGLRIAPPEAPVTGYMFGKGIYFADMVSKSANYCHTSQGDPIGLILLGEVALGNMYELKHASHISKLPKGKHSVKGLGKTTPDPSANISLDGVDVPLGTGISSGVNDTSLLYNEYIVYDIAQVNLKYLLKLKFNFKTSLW
PARP1 H862D H862D, sequence (P09874 whole entry H862D): as the sequence (P09874 whole entry) above, with H862D counted along it
PARP1 E988K E988K, sequence (P09874 whole entry E988K): as the sequence (P09874 whole entry) above, with E988K counted along it
PARP1 H862A H862A, sequence (P09874 whole entry H862A): as the sequence (P09874 whole entry) above, with H862A counted along it

The Kd is the free concentration of one partner at which half of the binding sites on the other are occupied at equilibrium, for simple one-to-one binding. For the sequence “GCTGAGCTTCTGGTGAAGCTCAGCTCGCGGCAGCTGGTGCTGCCGCGA [nicked dumbbell DNA (SSB probe)]”, the Kd came out at 11.2 nM with PARP1 H862D H862D, 176 nM with PARP1 H862A H862A, 122 nM with PARP1 WT and 7.4 nM in the data set with PARP1 E988K E988K.
